Experimental data published in patent US20120316071A1 (published 2012).
Residue numbers refer to the chain shown, from its start. In names and notes the source's numbering stands. Values belong to the binder of their own block, whether it stands above or below them.

Legend:
[1] = molecular target: T1, Recombinant Human DLL4 (delta-like protein 4) (human, UniProt Q9NR61 27-524); assay: ECL (MSD) multispot binding assay, Fab on immobilised recombinant human DLL4
T1 construct: also called rHuman DLL4; Delta-like 4

[2] = molecular target: T2, Recombinant Human DLL4 (R&D Systems Cat#1506-D4/CF) (human, UniProt Q9NR61 27-524); assay: ELISA, DLL4 coated on plate, Fab at 6.67 nM
T2 construct: Bought recombinant protein; also called delta-like protein 4; Delta-like 4

[3] = molecular target: T2, Recombinant Human DLL4 (R&D Systems …); assay: ELISA, DLL4 coated on plate, Fab at 2.22 nM
[4] = molecular target: T2, Recombinant Human DLL4 (R&D Systems …); assay: ELISA, DLL4 coated on plate, Fab at 20 nM
[5] = molecular target: T2, Recombinant Human DLL4 (R&D Systems …); assay: ELISA, DLL4 coated on plate, Fab at 0.74 nM
[6] = molecular target: T3, rHuman IGF-1 sR, (IGF-1 sR), CF (R&D Systems Cat#391-GR) (human, UniProt P08069 31-932); assay: ECL multispot (MSD), 20 nM Fab;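 also: purified Fab binding to antigens on multispot plates, read by electrochemiluminescence with a TAG-labelled detection antibody, 1 h Fab incubation at 20 °C, signal expressed relative to each well's blank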
T3 construct: Bought recombinant soluble receptor; also called insulin-like growth factor-1 soluble receptor

[7] = molecular target: T4, rHuman EGF R/Fc Chimera, CF (R&D Systems Cat#344-ER) (human, UniProt P00533 25-645); assay: ECL multispot (MSD), 20 nM Fab;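 also: purified Fab binding to antigens on multispot plates, read by electrochemiluminescence with a TAG-labelled detection antibody, 1 h Fab incubation at 20 °C, signal expressed relative to each well's blank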
T4 construct: Bought recombinant protein; also called epidermal growth factor receptor; Fc part of the bought chimera not given

[8] = molecular target: T5, rHuman ErbB2/Fc Chimera, CF (R&D Systems Cat#1129-ER) (human, UniProt P04626 23-652); assay: ECL multispot (MSD), 20 nM Fab;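 also: purified Fab binding to antigens on multispot plates, read by electrochemiluminescence with a TAG-labelled detection antibody, 1 h Fab incubation at 20 °C, signal expressed relative to each well's blank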
T5 construct: Bought recombinant protein; also called human epidermal growth factor 2 receptor; Fc part of the bought chimera not given

[9] = molecular target: T6, rHuman CD44/Fc Chimera, CF (R&D Systems Cat#3660-CD) (human, UniProt P16070 21-220); assay: ECL multispot (MSD), 20 nM Fab;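 also: purified Fab binding to antigens on multispot plates, read by electrochemiluminescence with a TAG-labelled detection antibody, 1 h Fab incubation at 20 °C, signal expressed relative to each well's blank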
T6 construct: Bought recombinant protein; Fc part of the bought chimera not given

[10] = molecular target: T7, rHuman EGF R/Fc Chimera, CF (R&D Systems Cat#344-ER) (human, UniProt P00533 25-645); assay: ECL multispot (MSD) binding assay, antigens spotted on plate, 20 nM Fab;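 also: fab incubated 1 h at 20 °C on antigen-spotted wells, bound Fab detected by TAG-labelled antibody, ratio of 4 or more over blank counted as a hit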
T7 construct: Bought recombinant protein; also called epidermal growth factor receptor; Fc part of the bought chimera not given

[11] = molecular target: T8, rHuman Erythropoietin R/Fc Chimera, CF (R&D Systems Cat#963-ER) (human, UniProt P19235 25-250); assay: as above
T8 construct: Bought recombinant protein; also called EPO R; Epo R; Fc part of the bought chimera not given
T8 sequence (looked up): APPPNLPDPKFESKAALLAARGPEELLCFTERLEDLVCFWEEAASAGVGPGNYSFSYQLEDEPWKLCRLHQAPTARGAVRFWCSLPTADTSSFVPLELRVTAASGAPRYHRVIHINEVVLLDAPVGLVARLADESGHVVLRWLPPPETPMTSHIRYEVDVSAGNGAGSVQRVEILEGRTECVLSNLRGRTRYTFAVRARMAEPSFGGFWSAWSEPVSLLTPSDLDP

[12] = molecular target: T9, rHuman ErbB2/Fc Chimera, CF (R&D Systems Cat#1129-ER) (human, UniProt P04626 23-652); assay: as above
T9 construct: Bought recombinant protein; also called human epidermal growth factor 2 receptor; Fc part of the bought chimera not given

[13] = molecular target: T10, rHuman Notch-1/Fc Chimera, CF (R&D Systems Cat#3647-TK) (human, UniProt P46531 19-526); assay: as above
T10 construct: Bought recombinant protein; Fc part of the bought chimera not given

[14] = molecular target: T11, rHuman CD44/Fc Chimera, CF (R&D Systems Cat#3660-CD) (human, UniProt P16070 21-220); assay: as above
T11 construct: Bought recombinant protein; Fc part of the bought chimera not given

[15] = molecular target: T12, Recombinant Human DLL4 (R&D Systems Cat#1506-D4/CF) (human, UniProt Q9NR61 27-524); assay: as above
T12 construct: Bought recombinant protein; also called delta-like protein 4; rHuman DLL4

[16] = molecular target: T13, rHuman IGF-1 sR, (IGF-1 sR), CF (R&D Systems Cat#391-GR) (human, UniProt P08069 31-932); assay: as above
T13 construct: Bought recombinant soluble receptor; The column head prints only 'IGF-1'; also called insulin-like growth factor-1 soluble receptor

[17] = molecular target: T14, rHuman P-Cadherin/Fc Chimera, CF (R&D Systems Cat#861-PC) (human, UniProt P22223 108-654); assay: as above
T14 construct: Bought recombinant protein; Fc part of the bought chimera not given

[18] = molecular target: T15, rHuman Erythropoietin R/Fc Chimera, CF (R&D Systems Cat#963-ER) (human, UniProt P19235 25-250); assay: ECL multispot (MSD), 20 nM Fab
T15 construct: Bought recombinant protein; also called EPO R; EPO R/Fc; Fc part of the bought chimera not given
T15 sequence (looked up): T8 sequence (looked up)

[19] = molecular target: T16, rHuman P-Cadherin/Fc Chimera, CF (R&D Systems Cat#861-PC) (human, UniProt P22223 108-654); assay: ECL multispot (MSD), 20 nM Fab
T16 construct: Bought recombinant protein; Fc part of the bought chimera not given

ELISA signal [2]: 0.003
ELISA signal [3]: 0
ELISA signal [4]: 0.009
ELISA signal [5]: 0
B2: Fab VH5-51_IGHD5-18*01>3_IGHJ4*01 G100K/G104T S28R (H:KT S28R) & V3-4_IGLJ1*01 (Fab, V domains shown)
VH: EVQLVQSGAEVKKPGESLKISCKGSGYRFTSYWIGWVRQMPGKGLEWMGIIYPGDSDTRYSPSFQGQVTISADKSISTAYLQWSSLKASDTAMYYCARRKYSYTYDYFDYWGQGTLVTVSS
VL: QTVVTQEPSFSVSPGGTVTLTCGLSSGSVSTSYYPSWYQQTPGQAPRTLIYSTNTRSSGVPDRFSGSILGNKAALTITGAQADDESDYYCVLYMGSGISYVFGTGTKVTVL
notes: Fab expressed in E. coli; Plasmid A adds CH1 with His6 and Flag tags to the heavy chain; Plasmid E adds lambda CL to the light chain; also called H:KT S28R & L:wt; G100K/G104T S28R & parent

ECL signal [1]: 12600
B3: Fab VH5-51_IGHD5-18*01>3_IGHJ4*01 G100K/G104T (H:KT) & V3-4_IGLJ1*01 S57A (Fab, V domains shown)
VH: B2 VH with R28S
VL: B2 VL with S57A
notes: Fab (CH1 with His6/Flag tags from Plasmid A, lambda CL from Plasmid E); also called G100K/G104T & S57A

ELISA signal [2]: 0.023
ELISA signal [3]: 0
ELISA signal [4]: 0.054
ELISA signal [5]: 0.002
B4: Fab VH5-51_IGHD5-18*01>3_IGHJ4*01 G100K/G104T G24T/S28R/G35V (H:KT TRV) & V3-4_IGLJ1*01 (Fab, V domains shown)
VH: B2 VH with G24T, G35V
VL: B2 VL
notes: Fab expressed in E. coli; Plasmid A adds CH1 with His6 and Flag tags to the heavy chain; Plasmid E adds lambda CL to the light chain; also called H:KT TRV & L:wt; G100K/G104T G24T/S28R/G35V & parent

ECL signal [1]: 13200
B5: Fab VH5-51_IGHD5-18*01>3_IGHJ4*01 G100K/G104T (H:KT) & V3-4_IGLJ1*01 T53A (Fab, V domains shown)
VH: B2 VH with R28S
VL: B2 VL with T53A
notes: Fab (CH1 with His6/Flag tags from Plasmid A, lambda CL from Plasmid E); also called G100K/G104T & T53A

The remaining lines, values behind:

B1: Fab VH5-51_IGHD5-18*01>3_IGHJ4*01 G100K/G104T (H:KT) & V3-4_IGLJ1*01 N54A (Fab, V domains shown)
VH: B2 VH with R28S
VL: B2 VL with N54A
notes: Fab (CH1 with His6/Flag tags from Plasmid A, lambda CL from Plasmid E); also called G100K/G104T & N54A
ECL signal [1]: 12900

B6: Fab VH3-23_IGHD2-21*01>3_IGHJ6*01 H100E/S108P/Y113G (EPG) & V2-13_IGLJ2*01 (Fab, V domains shown)
VH: not shown
VL: SSELTQDPAVSVALGQTVRITCQGDSLRSYYASWYQQKPGQAPVLVIYGKNNRPSGIPDRFSGSSSGNTASLTITGAQAEDEADYYCNSRDSSGNHLVVFGGGTKLTVL
notes: Fab; CH1 (His and Flag tags) and lambda CL come from the expression vectors; also called H:EPG
ECL signal ratio (column head gives no unit) [6]: 1.7
ECL signal ratio (column head gives no unit) [7]: 8.4
ECL signal ratio (column head gives no unit) [8]: 11.7
ECL signal ratio (column head gives no unit) [9]: 1.7

B7: Fab VH3-23_IGHD2-21*01>3_IGHJ6*01 H100E/S108P/Y113G Y109G & V2-13_IGLJ2*01 (Fab, V domains shown)
VH: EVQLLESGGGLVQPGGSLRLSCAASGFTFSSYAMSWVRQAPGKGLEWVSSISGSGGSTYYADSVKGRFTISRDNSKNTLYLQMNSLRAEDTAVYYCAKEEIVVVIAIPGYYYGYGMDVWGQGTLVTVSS
VL: B6 VL
notes: Tested as Fab made in E. coli: VH joined to CH1 (His and Flag tags), VL joined to lambda CL; also called EPG Y109G
ECL multispot signal (ratio to blank; column not labelled) [10]: 2
ECL multispot signal (ratio to blank; column not labelled) [11]: 11.1
ECL multispot signal (ratio to blank; column not labelled) [12]: 1.4
ECL multispot signal (ratio to blank; column not labelled) [13]: 1.5
ECL multispot signal (ratio to blank; column not labelled) [14]: 1.5
ECL multispot signal (ratio to blank; column not labelled) [15]: 1.9
ECL multispot signal (ratio to blank; column not labelled) [16]: 1.6

B8: Fab VH3-23_IGHD2-21*01>3_IGHJ6*01 H100E/S108P/Y113G Y109R & V2-13_IGLJ2*01 (Fab, V domains shown)
VH: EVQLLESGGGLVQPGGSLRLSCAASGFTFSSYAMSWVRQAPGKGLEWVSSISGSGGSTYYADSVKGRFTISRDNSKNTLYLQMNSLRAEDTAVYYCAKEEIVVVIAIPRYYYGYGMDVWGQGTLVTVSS
VL: B6 VL
notes: also called EPG Y109R
ECL multispot signal (ratio to blank; column not labelled) [17]: 7.4
ECL multispot signal (ratio to blank; column not labelled) [10]: 1.8
ECL multispot signal (ratio to blank; column not labelled) [11]: 30.1
ECL multispot signal (ratio to blank; column not labelled) [12]: 2
ECL multispot signal (ratio to blank; column not labelled) [13]: 1.4
ECL multispot signal (ratio to blank; column not labelled) [14]: 1
ECL multispot signal (ratio to blank; column not labelled) [15]: 1.5
ECL multispot signal (ratio to blank; column not labelled) [16]: 1.3

B9: Fab VH3-23_IGHD2-21*01>3_IGHJ6*01 H100E/S108P/Y113G Y110H & V2-13_IGLJ2*01 (Fab, V domains shown)
VH: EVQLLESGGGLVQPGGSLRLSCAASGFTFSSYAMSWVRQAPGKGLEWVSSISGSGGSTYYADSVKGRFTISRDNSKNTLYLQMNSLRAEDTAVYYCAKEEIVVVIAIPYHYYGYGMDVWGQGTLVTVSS
VL: B6 VL
notes: Tested as Fab made in E. coli: VH joined to CH1 (His and Flag tags), VL joined to lambda CL; also called EPG Y110H
ECL multispot signal (ratio to blank; column not labelled) [10]: 1.7
ECL multispot signal (ratio to blank; column not labelled) [12]: 2.2
ECL multispot signal (ratio to blank; column not labelled) [13]: 1.4
ECL multispot signal (ratio to blank; column not labelled) [14]: 1.4
ECL multispot signal (ratio to blank; column not labelled) [15]: 1.9
ECL multispot signal (ratio to blank; column not labelled) [16]: 1.3

B10: Fab VH3-23_IGHD2-21*01>3_IGHJ6*01 H100E/S108P/Y113G (EPG) Y109W & V2-13_IGLJ2*01 (Fab, V domains shown)
VH: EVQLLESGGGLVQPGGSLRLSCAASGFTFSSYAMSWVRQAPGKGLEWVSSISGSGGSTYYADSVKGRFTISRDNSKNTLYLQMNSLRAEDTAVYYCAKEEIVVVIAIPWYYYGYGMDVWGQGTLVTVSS
VL: B6 VL
notes: Fab; NNK mutant of the EPG heavy chain; CH1 (tags) and lambda CL come from the vectors
ECL signal ratio (column head gives no unit) [6]: 1.5
ECL signal ratio (column head gives no unit) [7]: 11.1
ECL signal ratio (column head gives no unit) [18]: 169
ECL signal ratio (column head gives no unit) [8]: 16.1
ECL signal ratio (column head gives no unit) [19]: 32
